According to the RNAGym collection of RNA variant scans (doi:10.7554/elife.90254):

B1: OR4K15 (parent)
chain: GUUAACGGUCAUAGGCCAUGGAAACUAGGAGCACCAUUUCGCUGCCAGUGAAGAAAUGAACAAAGAAAAUCUGGGCCAGGCAGGCAUCAAAAGAAAUAGUCUUGCGCUCAACCAGAAAGUCUGUAAUCAUUUUAAGGGUA

Variants of: B1
Assay: self-cleavage, relative activity (ratio to wild type); higher = more cleavage; in vitro, sequencing; the parent is a self-cleaving ribozyme

Row | Variant | self-cleavage
1 | A92G A116U | 0.2
2 | A92G A116G | 0.44
3 | A92G A116C | 0.09
4 | A96U G99A | 0.44
5 | A98G A117U | 0.3
6 | A94U A135U | 1.75
7 | U100A A117G | 1.14
8 | G93A A135G | 2.27
9 | A92U U120C | 1
10 | A92G U130C | 0.3
11 | A94G U127G | 1.87
12 | A94G U127C | 1.04
13 | A94G U127A | 2.55
14 | G99A A134G | 0.6
15 | A96U U120C | 1.17
16 | U97A C101U | 0.49
17 | A96G U100A | 0.78
18 | G99U | 0.51
19 | G99A | 0.56
20 | A94U U97C | 1.31
21 | A94U U97G | 1.52
22 | A96U A114G | 0.85
23 | A98G A135C | 0.44
24 | U97C A140U | 1.02

Row | Variant | self-cleavage
25 | A92G A110C | 0.26
26 | A91G U108C | 0.02
27 | A94U U130C | 1.01
28 | A91G U127A | 2.67
29 | A91G U127C | 0.78
30 | A94G U131A | 0.74
31 | A94G U131C | 0.66
32 | A98U U102C | 2.78
33 | A94G U133C | 2.11
34 | A98U A117G | 1.63
35 | A98G A125U | 0.84
36 | A94U U120C | 1.1
37 | A92U A125G | 0.58
38 | G93A | 2.17
39 | G93U | 1.83
40 | A95G C109A | 0.78
41 | A91G U120A | 1.33
42 | A91G U120C | 0.53
43 | A94G U108C | 0.01
44 | A94G U108G | 0.07
45 | U97C A118U | 1.62
46 | U97C A118G | 0.77
47 | A96G A135G | 1.91
48 | A96G A135U | 2.17

Row | Variant | self-cleavage
49 | U97G U103C | 0.69
50 | A92G A125G | 0.79
51 | A92G A125U | 1.59
52 | A91U A94U | 1.87
53 | A94G A134G | 1.03
54 | A94C A126G | 0.79
55 | U97C U133C | 1.53
56 | A96U U131C | 2.32
57 | A96G A129U | 1.08
58 | A96G A129G | 1.11
59 | A91U A129G | 1.13
60 | U97C U127A | 0.81
61 | U97C U127C | 1.25
62 | A98G U102C | 2.44
63 | U97C C113A | 0.04
64 | A95G A126U | 1.42
65 | A94U A117U | 0.82
66 | A94U A117G | 1.95
67 | A94G A125G | 0.75
68 | A94U U102C | 1.36
69 | A92G U131A | 1.33
70 | A95G C105A | 0.09
71 | A94G A135G | 0.43
72 | A95G U132C | 2.35

Row | Variant | self-cleavage
73 | A95C U124C | 0.32
74 | A92G A94U | 2.13
75 | A96C A111G | 0.03
76 | A96G U108A | 0.02
77 | A96G U108C | 0.01
78 | A92U A116G | 0.99
79 | A94G A95G | 1.9
80 | A92U C112U | 0.01
81 | A92G A95G | 1.46
82 | A95C A116G | 0.74
83 | A96U A135U | 0.78
84 | A96U A135G | 1.39
85 | A96U A135C | 1.11
86 | A91U U100C | 2.82
87 | A91U U100A | 0.57
88 | A96G A117G | 2.13
89 | A98G U127A | 0.78
90 | A96G U122C | 1.38
91 | A94G U102C | 1.87
92 | A92C | 1.27
93 | A92U | 1.71
94 | A92G | 1.15
95 | A94G C113U | 0.03
96 | A95G U130C | 1.89

Row | Variant | self-cleavage
97 | A98C U127C | 1.94
98 | A92G U124C | 1
99 | A96G A134G | 1.81
100 | A91G G106A | 0.01
101 | A92G U108G | 0.02
102 | A96C A118U | 0.32
103 | A98G U120C | 0.23
104 | A96G A118G | 1.4
105 | A98U U131A | 0.49
106 | G99A G136A | 0.91
107 | A91G G104A | 0.02
108 | A94G A140G | 1.53
109 | A92G A134G | 0.98
110 | A91U U132A | 1.98
111 | A96G A126G | 1.01
112 | A96U U122C | 1.54
113 | A96U A111G | 0.04
114 | U97C U132A | 1.28
115 | U97C U132C | 1.45
116 | G93A U108A | 0.02
117 | U100A G123A | 0.47
118 | A96U U127A | 2.6
119 | A92G G106U | 0.01
120 | A92G G106A | 0.02

Row | Variant | self-cleavage
121 | A98U A110U | 1.67
122 | A98U A110G | 0.17
123 | A91G U131C | 1.07
124 | A92U U132C | 0.8
125 | A95G A114G | 1.17
126 | A95G A114C | 0.06
127 | A92G U139A | 2.12
128 | A92G U139G | 1.3
129 | A95G G137A | 0.66
130 | A95G G137U | 2.07
131 | A92G A96G | 0.99
132 | A92G A96U | 1.84
133 | A92G A129C | 0.59
134 | A92G A129U | 1.16
135 | A92G C113U | 0.14
136 | A95G G99A | 1.52
137 | A95G A96G | 1.25
138 | A95G A96C | 0.77
139 | A92G C105U | 0.08
140 | A96G U132A | 1.37
141 | A94G A110G | 0.13
142 | A92G A118U | 0.78
143 | A92U A126G | 1.18
144 | A91G U100C | 2.19

Row | Variant | self-cleavage
145 | U97A U108A | 0.03
146 | U97A U108C | 0.01
147 | G93U G123A | 0.77
148 | A96G U103A | 1.08
149 | A96G U103G | 0.03
150 | G99U U103C | 0.15
151 | U97A U132C | 0.95
152 | U97A U132A | 2.62
153 | G93U A135G | 1.96
154 | U97C A134G | 1.02
155 | A96G C101U | 0.4
156 | A92C U131C | 1.35
157 | U100A A114U | 0.01
158 | A96G U120C | 1.14
159 | A96G U120A | 2.74
160 | G99U A117G | 0.36
161 | A94C U131C | 0.24
162 | A95G U124A | 0.8
163 | A95G U124C | 1.85
164 | A96U U139C | 1.15
165 | A95C U103C | 1.28
166 | U100A A111G | 0.02
167 | U97C A110G | 0.11
